Data: PMC4315616

Experiments:
[1] = biological target: T1, SNV nucleocapsid protein N wild type (SNVN) (Sin Nombre hantavirus, UniProt Q89462 1-428); experiment: filter binding
T1 sequence: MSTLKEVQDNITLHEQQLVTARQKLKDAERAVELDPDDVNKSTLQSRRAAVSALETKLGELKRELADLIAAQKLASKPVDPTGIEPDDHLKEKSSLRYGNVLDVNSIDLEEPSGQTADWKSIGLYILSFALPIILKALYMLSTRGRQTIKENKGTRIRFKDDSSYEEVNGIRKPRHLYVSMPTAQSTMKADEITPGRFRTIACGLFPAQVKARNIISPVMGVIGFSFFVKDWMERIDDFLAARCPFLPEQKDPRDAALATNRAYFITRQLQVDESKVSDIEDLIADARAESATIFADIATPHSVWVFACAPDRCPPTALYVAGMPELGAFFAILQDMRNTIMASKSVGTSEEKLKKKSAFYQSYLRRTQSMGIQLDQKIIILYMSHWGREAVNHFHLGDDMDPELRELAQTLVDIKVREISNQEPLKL

[2] = biological target: T1, SNV nucleocapsid protein N wild type …; experiment: BLI
[3] = biological target: T1, SNV nucleocapsid protein N wild type …; experiment: BLI; remark: listed apart in the source
[4] = biological target: T1, SNV nucleocapsid protein N wild type …; experiment: filter binding; remark: listed apart in the source

Work on GAUAUGUGAG (ssRNA, 5' mRNA cap (enzymatic, Cell Script)) [capped decameric RNA] yielded a Kd [1] of 120 ± 0.6 nM, a Kd [2] of 106 ± 5.7 nM and a Kd [3] of 107.8 ± 0.7 nM.

GAUAUGUGAG (ssRNA) [uncapped decameric RNA] was tested, and the Kd [2] was 477 ± 6.8 nM and the binding signal [4] was ~4 fold lower affinity than capped.
